Experimental data reported in the supplement of paper PMC7877785.
± gives the uncertainty stated by the source.

Experiment: self-splicing fitness, log relative to wild type (ln ratio); higher = more splicing; Tetrahymena group I intron in knt gene, E. coli kanamycin selection, DiMSum; sequences stand for … in CUCUCU…GGAGGGAAAAGUUAUCAGGCAUGCACCUGGUAGCUAGUCUUUAAACCAAUAGAUUGCAUCGGUUUAAAAGGCAAGACCGUCAAAUUGCGGGAAAGGGGUCAACAGCCGUUCAGUACCAAGUCUCAGGGGAAACUUUGAGAUGGCCUUGCAAAGGGUAUGGUAAUAAGCUGACGGACAUGGUCCUAACCACGCAGCCAAGUCCUAAGUCAACAGAUCUUCUGUUGAUAUGGAUGCAGUUCACAGACUAAAUGUCGGUCGGGGAAGAUGUAUUCUUCUCAUAAGAUAUAGUCGGACCUCUCCUUAAUGGGAGCUAGCGGAUGAAGUGAUGCAACACUGGAGCCGCUGGGAACUAAUUUGUAUGCGAAAGUAUAUUGAUUAGUUUUGGAGUACUCGUGGUCG
How it was run: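 A randomised library covering all eight P1ex-region intron nucleotides was built with the intron in the knt kanamycin-resistance gene on pET-22b(+) and held in E. coli BL21(DE3). Cells were grown overnight at 37°C or 30°C on LB agar, with or without 25 μg/mL kanamycin, plus 100 μg/mL carbenicillin, 50 μM IPTG and 0.2% rhamnose, and pooled colonies were amplicon-sequenced on an Illumina HiSeq 2500. DiMSum fitness is the error-weighted combination of wild-type-normalised replicate fold changes, kanamycin versus none.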

| Sequence | self-splicing fitness (ln) (30 °C) | self-splicing fitness (ln) (37 °C) |
| --- | --- | --- |
| GCAAAGCAAUAUUACGACGU | 0.0721 ± 0.072 | 0.116 ± 0.096 |
| GCAAAGCAAUAUUACGACUG | -1.3 ± 0.13 | -0.673 ± 0.15 |
| GCAAAGCAAUAUUACGAGUC | -1.41 ± 0.14 | -2.6 ± 0.19 |
| GCAAAGCAAUAUUACGCAAC | -3.02 ± 0.15 | -1.23 ± 0.12 |
| GCAAAGCAAUAUUACGCCAA | -2.08 ± 0.48 | -2.95 ± 0.31 |
| GCAAAGCAAUAUUACGCGGG | -3.11 ± 0.21 | -2.41 ± 0.21 |
| GCAAAGCAAUAUUACGCUUC | -4.15 ± 0.33 | -2.39 ± 0.33 |
| GCAAAGCAAUAUUACGGCUA | -0.821 ± 0.07 | -0.279 ± 0.073 |
| GCAAAGCAAUAUUACGGGAC | -1.82 ± 0.11 | -1.66 ± 0.16 |
| GCAAAGCAAUAUUACGGGCG | -0.534 ± 0.079 | -0.696 ± 0.11 |
| GCAAAGCAAUAUUACGGUUU | -1.26 ± 0.063 | -0.4 ± 0.082 |
| GCAAAGCAAUAUUACGUAAU | -1.23 ± 0.061 | -0.867 ± 0.084 |
| GCAAAGCAAUAUUACGUCCA | -1.64 ± 0.12 | -0.284 ± 0.11 |
| GCAAAGCAAUAUUACGUGCC | -4.02 ± 0.25 | -1.63 ± 0.2 |
| GCAAAGCAAUAUUACGUGGA | -2.07 ± 0.14 | -2.36 ± 0.16 |
| GCAAAGCAAUAUUACGUGGC | -3.38 ± 0.31 | -2.57 ± 0.24 |
| GCAAAGCAAUAUUACGUGUG | -1.99 ± 0.046 | -0.419 ± 0.052 |
| GCAAAGCAAUAUUACGUUUA | -2.29 ± 0.12 | -1.75 ± 0.13 |
| GCACAGCAAUAUUACGAAAC | -0.701 ± 0.088 | -0.265 ± 0.12 |
| GCACAGCAAUAUUACGACGC | -0.317 ± 0.079 | -0.196 ± 0.12 |
| GCACAGCAAUAUUACGAGGC | -2.95 ± 0.12 | -3.27 ± 0.2 |
| GCACAGCAAUAUUACGAGUG | -4.09 ± 0.26 | -2.64 ± 0.17 |
| GCACAGCAAUAUUACGAUUA | -1.38 ± 0.087 | -0.549 ± 0.086 |
| GCACAGCAAUAUUACGCCAC |  | -1.97 ± 0.2 |

| Sequence | self-splicing fitness (ln) (30 °C) | self-splicing fitness (ln) (37 °C) |
| --- | --- | --- |
| GCACAGCAAUAUUACGCGGA | -1.51 ± 0.14 | -0.87 ± 0.12 |
| GCACAGCAAUAUUACGCUCG | -0.537 ± 0.066 | 0.118 ± 0.095 |
| GCACAGCAAUAUUACGCUUG | -2.89 ± 0.12 | -1.39 ± 0.11 |
| GCACAGCAAUAUUACGGCGU | -0.386 ± 0.061 | 0.414 ± 0.079 |
| GCACAGCAAUAUUACGGGAA | -1.47 ± 0.15 | -1.42 ± 0.13 |
| GCACAGCAAUAUUACGGGUG | -4.37 ± 0.23 | -2.62 ± 0.16 |
| GCACAGCAAUAUUACGGUAA | -1.06 ± 0.075 | -0.547 ± 0.079 |
| GCACAGCAAUAUUACGGUCG | -0.697 ± 0.043 | -0.246 ± 0.057 |
| GCACAGCAAUAUUACGUCCU | -0.289 ± 0.072 | 0.244 ± 0.094 |
| GCACAGCAAUAUUACGUGCA | -3.1 ± 0.12 | -2.04 ± 0.093 |
| GCACAGCAAUAUUACGUGUC | -2.98 ± 0.12 | -2.05 ± 0.17 |
| GCACAGCAAUAUUACGUUAC | -1.14 ± 0.074 | -0.837 ± 0.087 |
| GCACAGCAAUAUUACGUUAU | -1.14 ± 0.044 | -0.44 ± 0.054 |
| GCACAGCAAUAUUACGUUCA | -0.911 ± 0.054 | -0.855 ± 0.062 |
| GCACAGCAAUAUUACGUUCC | -1.85 ± 0.078 | -0.808 ± 0.11 |
| GCACAGCAAUAUUACGUUGG | -1.6 ± 0.058 | -0.74 ± 0.071 |
| GCAGAGCAAUAUUACGAAAG | -2.9 ± 0.16 | -3.24 ± 0.26 |
| GCAGAGCAAUAUUACGAAUC | -1.94 ± 0.33 | -1.15 ± 0.33 |
| GCAGAGCAAUAUUACGAUCC | -2.13 ± 0.3 | -0.288 ± 0.46 |
| GCAGAGCAAUAUUACGAUUU | -2.51 ± 0.14 | -2.16 ± 0.19 |
| GCAGAGCAAUAUUACGCGUG | -2.7 ± 0.24 | -3.6 ± 0.37 |
| GCAGAGCAAUAUUACGCUAA |  | -2.95 ± 0.43 |
| GCAGAGCAAUAUUACGGAGG | -5.06 ± 0.25 | -2.14 ± 0.15 |
| GCAGAGCAAUAUUACGGCAC | -1.64 ± 0.17 | -1.42 ± 0.26 |

| Sequence | self-splicing fitness (ln) (30 °C) | self-splicing fitness (ln) (37 °C) |
| --- | --- | --- |
| GCAGAGCAAUAUUACGGCUA | -1.53 ± 0.14 | -0.385 ± 0.11 |
| GCAGAGCAAUAUUACGGGAC | -3.3 ± 0.14 | -1.65 ± 0.11 |
| GCAGAGCAAUAUUACGUAUU | -3.82 ± 0.23 | -1.9 ± 0.16 |
| GCAUAGCAAUAUUACGAAAA |  | 0.492 ± 0.27 |
| GCAUAGCAAUAUUACGACAA | -2.27 ± 0.19 | -0.595 ± 0.13 |
| GCAUAGCAAUAUUACGACUA | -0.161 ± 0.23 | 0.00165 ± 0.2 |
| GCAUAGCAAUAUUACGAGCU | -3.2 ± 0.19 | -1.31 ± 0.15 |
| GCAUAGCAAUAUUACGAGUC | -2.44 ± 0.12 | -2.7 ± 0.17 |
| GCAUAGCAAUAUUACGCAAA | -1.88 ± 0.39 | -0.928 ± 0.24 |
| GCAUAGCAAUAUUACGCACG | -2 ± 0.17 | -2.05 ± 0.22 |
| GCAUAGCAAUAUUACGCAUA | -2.29 ± 0.15 | -1.16 ± 0.12 |
| GCAUAGCAAUAUUACGCCCG | -1.24 ± 0.32 | -0.11 ± 0.32 |
| GCAUAGCAAUAUUACGCGUC | -3.3 ± 0.2 | -2.97 ± 0.4 |
| GCAUAGCAAUAUUACGGACU | 0.021 ± 0.15 | -0.121 ± 0.15 |
| GCAUAGCAAUAUUACGGGUU | -1.79 ± 0.091 | -0.302 ± 0.088 |
| GCAUAGCAAUAUUACGGUUC | -2.21 ± 0.12 | -0.892 ± 0.13 |
| GCAUAGCAAUAUUACGUAGU | -2.22 ± 0.15 | -1.51 ± 0.16 |
| GCAUAGCAAUAUUACGUCAC | -3.21 ± 0.16 | -2.08 ± 0.22 |
| GCAUAGCAAUAUUACGUCCA | -1.49 ± 0.21 | -0.447 ± 0.18 |
| GCAUAGCAAUAUUACGUCGC | -1.2 ± 0.28 | -2.32 ± 0.45 |
| GCAUAGCAAUAUUACGUGGA | -3.06 ± 0.25 | -1.75 ± 0.17 |
| GCAUAGCAAUAUUACGUUAC | -2.15 ± 0.41 | -1.85 ± 0.4 |
| GCAUAGCAAUAUUACGUUGA | -2.41 ± 0.12 | -1.76 ± 0.1 |
| GCAUAGCAAUAUUACGUUGU | -3.21 ± 0.17 | -2.74 ± 0.19 |

| Sequence | self-splicing fitness (ln) (30 °C) | self-splicing fitness (ln) (37 °C) |
| --- | --- | --- |
| GCCAAGCAAUAUUACGAAGA | -2.96 ± 0.21 | -1.39 ± 0.17 |
| GCCAAGCAAUAUUACGAAUG | -3.56 ± 0.2 | -1.84 ± 0.16 |
| GCCAAGCAAUAUUACGAUUG | -4.04 ± 0.4 | -2.12 ± 0.34 |
| GCCAAGCAAUAUUACGCCCA | -1.18 ± 0.1 | -0.6 ± 0.12 |
| GCCAAGCAAUAUUACGCGUA | -0.871 ± 0.089 | -0.13 ± 0.089 |
| GCCAAGCAAUAUUACGCUAC | -4.34 ± 0.42 | -2.22 ± 0.16 |
| GCCAAGCAAUAUUACGCUAU | -1.23 ± 0.064 | -0.923 ± 0.078 |
| GCCAAGCAAUAUUACGCUGA | -1.4 ± 0.1 | -0.943 ± 0.15 |
| GCCAAGCAAUAUUACGGAUA | -0.904 ± 0.069 | -0.65 ± 0.073 |
| GCCAAGCAAUAUUACGGCAG | -3.71 ± 0.19 | -2.54 ± 0.23 |
| GCCAAGCAAUAUUACGGUCC | -2.49 ± 0.11 | -0.771 ± 0.11 |
| GCCAAGCAAUAUUACGUCAC | -3.8 ± 0.19 | -1.8 ± 0.16 |
| GCCAAGCAAUAUUACGUCGC | -2.63 ± 0.14 | -1.23 ± 0.1 |
| GCCAAGCAAUAUUACGUCUA | -1.15 ± 0.11 | -1.08 ± 0.1 |
| GCCAAGCAAUAUUACGUCUC | -0.775 ± 0.067 | -0.174 ± 0.087 |
| GCCAAGCAAUAUUACGUUGU | -1.79 ± 0.064 | -0.73 ± 0.072 |
| GCCCAGCAAUAUUACGAAAG | -2.48 ± 0.12 | -2.07 ± 0.19 |
| GCCCAGCAAUAUUACGAAUU | -2.18 ± 0.077 | -0.934 ± 0.094 |
| GCCCAGCAAUAUUACGAGCA | -1.49 ± 0.11 | -0.143 ± 0.091 |
| GCCCAGCAAUAUUACGAGCG | -0.449 ± 0.067 | -1.17 ± 0.1 |
| GCCCAGCAAUAUUACGAGGC | -3.64 ± 0.2 | -2.5 ± 0.22 |
| GCCCAGCAAUAUUACGAUGC | -0.328 ± 0.055 | 0.257 ± 0.076 |
| GCCCAGCAAUAUUACGAUGG | -3.53 ± 0.14 | -2.98 ± 0.18 |
| GCCCAGCAAUAUUACGCAGA | -3.37 ± 0.28 | -3.47 ± 0.42 |
